Results from patent US20220267458A1 (Innovent, published 2022).
Where a chain is given by its changes, count along the chain named.

T1: human GITR-His (human, UniProt Q9Y5U5 26-161)
T1 construct: Bought from Acro biosystems; also called GITR-His (Acro biosystems); antigen GITR-His
T1 sequence: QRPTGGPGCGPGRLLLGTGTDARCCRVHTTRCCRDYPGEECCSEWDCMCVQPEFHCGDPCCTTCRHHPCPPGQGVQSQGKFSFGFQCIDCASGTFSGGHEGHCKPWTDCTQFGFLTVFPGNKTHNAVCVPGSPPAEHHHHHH

T2: human GITR overexpressed on CHO cells (CHO-GITR) (human, UniProt Q9Y5U5 26-241)
T2 construct: whole, on cells; also called cell surface GITR protein; antigen expressed on the cell surface
T2 sequence (looked up): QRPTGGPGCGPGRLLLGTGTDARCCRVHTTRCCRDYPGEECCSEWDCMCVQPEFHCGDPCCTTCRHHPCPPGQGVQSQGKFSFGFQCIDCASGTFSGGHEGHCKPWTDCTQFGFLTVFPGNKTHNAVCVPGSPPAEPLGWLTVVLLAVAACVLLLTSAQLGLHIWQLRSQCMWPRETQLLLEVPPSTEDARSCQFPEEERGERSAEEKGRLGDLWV

B1: hcIgG-04 (antibody, V domains shown)
VH: QVQLQESGGGSVQAGGSLRLSCTASGFTVDDSGMGWYRQAPGNECELVSTISSDGSTYYADSVKGRFTISQDNAKNTVYLQMNSLKPEDTAVYYCAAPRVGVGWVRPCDYEYNYWGQGTQVTVSS
notes: also called heavy-chain antibody of Nb-04
B2: hcIgG-02 (antibody, V domains shown)
VH: QVQLQESGGGSVQAGGSLRLSCAASRDTYTRYFMGWFRQTPGKEGEGVAVLLPGGDYTFYADSVKGRFTITQDSAKNTVYLQMNSLKPEDTAMYYCAADVTVGSRWSQASNYNYWGQGTQVTVSS
notes: also called heavy-chain antibody of Nb-02
B3: Nb-01 (VHH)
VHH: QVQLQESGGGLVQPGGSLRLSCTASGLTFDDYAMGWFRQAPGKGREGVSLITWSGSSTYYADSVKGRFTVSRDTATNTLVLQMNSLKPEDTAMYYCAADPRSGGYYSSPPPPAVYRYLRFWGQGTQVTVSS
notes: Tested as crude extract from E. coli (osmotic shock)
B4: Nb-09 (VHH)
VHH: QVQLQESGGGLVQPGGSLRLSCGASGFTFSSTAMWWFRQAPGKGLEWVSSITSDVSGTYYADSVQGRFTISRDNGKNTVYLQMNSLRSEDTALYYCATSCGFSGGTWSCKYRGQGTQVTVSS
notes: as for B3
B5: Nb-07 (VHH)
VHH: QVQLQESGGGLVQAGGSLKLSCTVSGFAFGSSHMSWVRRAPGKGLEWVSTIHSGGGFGDYANSVQGRFTISRDVAKNTLYLQMNSLKPEDTAIYYCALATDWRKPPGQGTQVTVSS
notes: as for B3
B6: Nb-10 (VHH)
VHH: B5 VHH with A14P, K19R, T23A, V24A
notes: as for B3
B7: Nb-16 (VHH)
VHH: QVQLQESGGGSVQAGGSLRLSCAASGYTYNKYSWGWFRQAPGKEREGVAGIDSDGSTSYADSVKGRFTISKDNTKNTLYLQMNSLKPEDTAMYYCAASDWVSAIQALGVLAVRPYEYWGQGTQVTVSS
notes: as for B3
B8: Nb-20 (VHH)
VHH: QVQLQESGGGSVQAGGSLRLSCASSGYSRTSRWMAWFRQAPGKEREGVAAIYTGGSSTLYANSMADRVTISQDNAKNTVYLRMNNLKPEDTAMYYCAADKLAGDFWLVDRWRAWGQGTQVTVSS
notes: as for B3
B9: Nb-19 (VHH)
VHH: QVQLQESGGGSVQAGGSLRLSCAASGFTYSNYCMAWFRQAPGKEREGVAAIDSDGSTSYADSVKGRFTISQDNAKNTLYLQMNSLKPEDTAMYYCAAGNKKPYQLCNTDSRRYYHWGQGTQVTVSS
notes: as for B3
B10: Nb-21 (VHH)
VHH: QVQLQESGGGSVQAGGSLRLSCRTSGYTNNLKSMAWFRQAPGKEREAVASIHNNGGPTYDYYAESVKGRFAISQDNAKNTLYLQMSSAKPEDTAVYYCAADNRFLGSGSWRLPSLYNYWGQGTQVTVSS
notes: as for B3
B11: Nb-05 (VHH)
VHH: QVQLQESGGGLVQPGGSLRLSCAASGFTFSNKVMSWVRQAPGKGFEWVSSIARGGDWTTYADSVEGRFTISRDNAKNTLYLQLNSLKTEDTAMYYCAQAENWKTPPGQGTQVTVSS
notes: as for B3
B12: Nb-22 (VHH)
VHH: QVQLQESGGGSVQAGGSLRLSCAASGYTFTTAYMGWFRQAPGKEREGVAAIDSDGRTEYADAVKGRFTISKDNAKNTLYLQMNSLKPEDTAMYYCAADKDDWLLLHGRSLFPSAFAYWGQGTQVTVSS
notes: as for B3
B13: Nb-06 (VHH)
VHH: QVQLQESGGGSVQAGGSLRLSCAASGYAYTRNCMGWFRQAPGKEREEVATINLGGGSTYYADSVKGRFAISQDNAKNTVYLQMNNLKPEDTAMYYCAAIAQYGGSLCSNFGWYNLWGQGTQVTVSS
notes: as for B3
B14: Nb-04 (VHH)
VHH: B1 VH
notes: as for B3
B15: Nb-11 (VHH)
VHH: B1 VH with A14T, V29F, D31A, S32A, G33D, T50I
notes: as for B3
B16: Nb-08 (VHH)
VHH: QVQLQESGGGSVQAGGSLRLSCAASGYTSSRKYIGWFRQAPGKQREWVAGIDTGAGGTCTIASVQGRFTISQDVAKNTLYLQIDSLKPEDTAVYYCAADWVRGGFCSGDADFRYWGQGTQVTVSS
notes: as for B3
B17: Nb-15 (VHH)
VHH: QVQLQESGGGSVQAGGSLRLSCVVFGNIFRNYCMAWFRQAPGKEREGVVVIYTGGGSTYYADSVKGRFTISQDNAKNTVYLQMNSLKHEDTAMYYCAADQTTRYSSDYVNVGPCDMDSWGKGTQVTVSS
notes: as for B3
B18: Nb-02 (VHH)
VHH: B2 VH
notes: as for B3
B19: Nb-12 (VHH)
VHH: B2 VH with G45P, D56A
notes: as for B3
B20: Nb-14 (VHH)
VHH: QVQLQEFGGGSVQAGGSLRLSCVASGFTFSNYCMGWFRQDPGKEREAVARIFVDGSTRYADAVKGRFTISKDNAKNTLYVQINSLKPEDTAMYYCTTPFPWTLCVDGPGAYKYWGQGTQVTVSS
notes: as for B3
B21: Nb-17 (VHH)
VHH: QVQLQESGGGSAQAGGSLRLSCAASRYTSSSNAMGWFRQAPGKQREWVAGSDTGAGITCNAASVKGRFTISQDVAKNTVYLQMNSLKPEDTAVYYCAADWFRGAFCSGDADFRYWGQGTQVTVSS
notes: as for B3
B22: Nb-13 (VHH)
VHH: QVQLQESGGGSVQAGGSLRLSCTASSNTGRMGWFRQAPGKEREGVTAVDNFGRTNYAKYVKGRFTISKDNAKNTLYLQMNSLKPEDTAMYYCAADPWGRGAALTPNEYIYWGQGTQVTVSS
notes: as for B3
B23: Nb-03 (VHH)
VHH: QVQLQESGGGSVQAGGSLRLSCAASGYTYSGYCMGWFRQAPGKEHEGVASIVSGLGRPYYADSVKGRFTISQDNAKNTVYLQMNSLKPEDTAMYYCAAEWATKLCSEIPATEWDYWGQGTQVTVSS
notes: as for B3
B24: Nb-18 (VHH)
VHH: QVQLQESGGGSVQTGGSLRLSCAASGLTSTTKYMGWFRQAPGKEREGVAGIYISSGATYYDDSVKGRFTISQDNAKNTVYLHINSLEPDDTAMYYCAASVLSVFRPLSSNQYHYWGQGTQVTVSS
notes: as for B3

Target: T1, human GITR-His
Experiment: ForteBio BLI, antibody on AHQ tip, human GITR-His 100 nM in solution, 1:1 model
Method: (2) Experimental procedure: 100 μl of SD buffer and antibodies (hcIgG-02, hcIgG-03, hcIgG-04, hcIgG-07, hcIgG-09, hcIgG-10, hcIgG-16 and hcIgG-20, control antibody), GITR-His (Acro biosystems) were added to a 96-well half-volume black polystyrene microplate. The plate was arranged according to the positions of the samples, the position of the sensor was selected, and the operation procedures were set as: Baseline, Loading ˜1 nm, Baseline, Association and Dissociation, each running for a time depending on the binding and dissociation rates of the sample, at a rotation speed of 400 rpm and a temperature of 30° C.
(3) A 1:1 binding model was adopted for kinetic analysis.

Kd [nM] | koff [s⁻¹] | kon [M⁻¹ s⁻¹] | Binder
7.92 | 0.00202 | 256000 | B1
6.33 | 0.00214 | 338000 | B2

Target: T1, human GITR-His
Experiment: PE-ELISA, sample OD against reference OD
Method: (§1) (2) crude antibodies were obtained by a conventional osmotic shock method, and the crude antibodies were transferred to an enzyme-labeled plate (Nunc) coated with the antigen GITR-His overnight, and incubated at room temperature for 1 h;

Ratio (+/-) | Binder
6.23 | B3
23.1 | B4
32.6 | B5
29.9 | B6
20.7 | B7
12.2 | B8
18.5 | B9
7.55 | B10
21.5 | B11
10 | B12
3.31 | B13
22 | B14
7.78 | B15
23 | B16
5.04 | B17
20.7 | B18
4.53 | B19
4 | B20
15.1 | B21
3.29 | B22
11.7 | B23
9.8 | B24

Target: T2, human GITR overexpressed on CHO cells …
Experiment: flow cytometry on CHO-GITR cells, PE anti-human Fc detection, MFI; direct binding titration, the table row is labelled IC50, nM is taken from the concentration axis
Method: (1) Cell preparation: The pCHO1.0 vector (Invitrogen) carrying human GITR cDNA cloned to a multiple cloning site (MCS) was transfected into Chinese hamster ovary cancer cells (CHO) (Invitrogen) to produce human GITR-overexpressing CHO cells (CHO-GITR), the CHO cells (CHO-GITR) overexpressing human GITR on the surface thereof were counted, and diluted to 1×10⁶ cells/mL, and added to a U-bottom 96-well plate with 100 μL/well.
(1) Detection: The cell suspension was centrifuged at 400 g for 5 min to remove the cell medium. Serial dilutions of the sample were added to a U-shaped plate, and then the cells were resuspended and added to the plate with 100 μL/well. The plate was put onto the ice to stand for 30 min The cell suspension was centrifuged at 400 g for 5 min, and the supernatant was discarded. The cells were washed once with PBS, and then centrifuged at 400 g for 5 min to remove PBS. 100 μL of the solution of PE-conjugated anti-human Fc antibody (Jackson Immuno Research) diluted at a ratio of 1:200 was added to each well, and the cells were incubated in dark on the ice for 30 min The cell suspension was centrifuged at 400 g for 5 min, and the supernatant was discarded. The cells were washed once with PBS. The cells were resuspended with 100 μL of PBS.

IC50 [nM] | Binder
41.2 | B2

Target: T1, human GITR-His
Experiment: PE-ELISA, crude nanobody on coated GITR-His, anti-HA detection
Method: as §1
(3) unbound antibodies were washed off with PBST, then mouse anti-HA tag antibody (SinoBiological) was added, and placed at room temperature for 1 h;

Sample OD (+) | Binder
0.467 OD (405 nm) | B3
1.45 OD (405 nm) | B4
2.35 OD (405 nm) | B5
2.27 OD (405 nm) | B6
1.67 OD (405 nm) | B7
1.41 OD (405 nm) | B8
1.32 OD (405 nm) | B9
0.522 OD (405 nm) | B10
1.41 OD (405 nm) | B11
0.606 OD (405 nm) | B12
0.314 OD (405 nm) | B13
1.63 OD (405 nm) | B14
0.552 OD (405 nm) | B15
1.71 OD (405 nm) | B16
1.25 OD (405 nm) | B17
1.43 OD (405 nm) | B18
0.444 OD (405 nm) | B19
0.46 OD (405 nm) | B20
1.04 OD (405 nm) | B21
0.263 OD (405 nm) | B22
0.786 OD (405 nm) | B23
1.01 OD (405 nm) | B24
